# In PMC12881670, “Investigation into ligand selectivity and bias at the formyl peptide receptor family” (The Journal of Pharmacology and Experimental Therapeutics, 2025):
# Where no end group is shown, it is not given here. [ ]: non-standard residue; d: D form.
# T1: FLAG-tagged human FPR1 (Hs_FPR1) (human, UniProt P21462 1-350)
# T1 construct: human formyl peptide receptor 1; cDNA purchased (cDNA.org); source: HEK293, stably expressed, on cells; not shown: FLAG, N-terminal, kept
# T1 sequence (looked up): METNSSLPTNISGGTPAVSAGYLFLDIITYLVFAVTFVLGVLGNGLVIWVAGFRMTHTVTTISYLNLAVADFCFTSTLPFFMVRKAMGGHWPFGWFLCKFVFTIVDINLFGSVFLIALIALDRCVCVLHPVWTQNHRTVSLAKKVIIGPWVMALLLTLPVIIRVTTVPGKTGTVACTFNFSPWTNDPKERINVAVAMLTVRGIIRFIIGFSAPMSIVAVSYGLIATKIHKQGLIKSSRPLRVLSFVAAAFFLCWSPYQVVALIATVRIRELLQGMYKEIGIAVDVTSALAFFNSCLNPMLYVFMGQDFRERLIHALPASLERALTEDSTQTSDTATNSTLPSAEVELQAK
# T2: FLAG-tagged human FPR2 (Hs_FPR2) (human, UniProt P25090 1-351)
# T2 sequence (looked up): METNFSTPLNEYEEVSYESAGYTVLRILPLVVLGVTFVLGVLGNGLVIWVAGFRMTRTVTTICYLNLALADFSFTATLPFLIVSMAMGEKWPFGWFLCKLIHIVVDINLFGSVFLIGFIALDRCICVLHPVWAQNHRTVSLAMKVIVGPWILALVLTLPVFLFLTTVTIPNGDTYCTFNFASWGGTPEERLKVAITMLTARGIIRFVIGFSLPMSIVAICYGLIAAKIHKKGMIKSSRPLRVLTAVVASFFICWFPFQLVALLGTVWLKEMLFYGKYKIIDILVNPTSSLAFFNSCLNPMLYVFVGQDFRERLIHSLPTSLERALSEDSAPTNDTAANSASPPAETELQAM
# T3: FLAG-tagged mouse Fpr1 (Mm_Fpr1) (mouse, UniProt P33766 1-364)
# T3 sequence (looked up): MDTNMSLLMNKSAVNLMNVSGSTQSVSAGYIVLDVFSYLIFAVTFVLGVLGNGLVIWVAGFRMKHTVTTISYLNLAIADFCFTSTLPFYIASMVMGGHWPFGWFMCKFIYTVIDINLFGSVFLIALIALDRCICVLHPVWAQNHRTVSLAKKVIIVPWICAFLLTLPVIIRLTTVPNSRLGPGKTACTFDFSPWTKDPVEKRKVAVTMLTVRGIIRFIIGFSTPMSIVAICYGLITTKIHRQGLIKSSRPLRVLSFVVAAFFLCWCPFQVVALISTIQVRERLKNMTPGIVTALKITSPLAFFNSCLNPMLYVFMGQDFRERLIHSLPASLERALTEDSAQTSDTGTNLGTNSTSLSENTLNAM
# T4: FLAG-tagged mouse Fpr2 (Mm_Fpr2) (mouse, UniProt O88536 1-351)
# T4 sequence (looked up): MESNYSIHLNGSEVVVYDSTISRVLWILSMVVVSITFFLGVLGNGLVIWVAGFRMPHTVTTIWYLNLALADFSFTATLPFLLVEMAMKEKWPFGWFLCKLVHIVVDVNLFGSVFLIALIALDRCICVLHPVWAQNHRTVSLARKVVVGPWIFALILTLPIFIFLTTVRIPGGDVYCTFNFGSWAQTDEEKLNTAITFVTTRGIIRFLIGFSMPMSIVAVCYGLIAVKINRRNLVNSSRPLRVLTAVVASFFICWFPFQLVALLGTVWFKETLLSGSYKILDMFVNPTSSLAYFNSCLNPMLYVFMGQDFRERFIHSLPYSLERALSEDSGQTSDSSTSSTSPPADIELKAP
# Tests used:
# FPR1 = settings: at 100 nM; cited from earlier work
# [1] = target: T1, FLAG-tagged human FPR1 (Hs_FPR1); test: flow cytometry on cells; competition binding: HEK293 cells stably expressing the receptor, lifted in PBS, on ice 90 min with 10 nM K(5/6-FAM)-WKYMVm and increasing unlabeled ligand; mean fluorescence of 5000 cells as % of that without competitor; One site-Fit logIC50
# [2] = target: T1, FLAG-tagged human FPR1 (Hs_FPR1); test: cell-based or functional assay
# [3] = target: T2, FLAG-tagged human FPR2 (Hs_FPR2); test: cell-based or functional assay
# [4] = target: T3, FLAG-tagged mouse Fpr1 (Mm_Fpr1); test: cell-based or functional assay
# [5] = target: T4, FLAG-tagged mouse Fpr2 (Mm_Fpr2); test: cell-based or functional assay
Log IC50 [1],Max Comp (%) [1],receptor internalization (flow cytometry): Emax (% of 1 μM WKYMVm) [2],receptor internalization (flow cytometry): Log EC50 (M) [2],receptor internalization (flow cytometry): Emax (% of 1 μM WKYMVm) [3],receptor internalization (flow cytometry): Log EC50 (M) [3],receptor internalization (flow cytometry): Emax (% of 1 μM WKYMVm) [4],receptor internalization (flow cytometry): Log EC50 (M) [4],receptor internalization (flow cytometry): Emax (% of 1 μM WKYMVm) [5],receptor internalization (flow cytometry): Log EC50 (M) [5],Molecule,"arrestin recruitment to FPR1, Pathhunter (FPR1)"
–,–,–,–,–,–,–,–,–,–,Cc1cccc(-c2oc(C)nc2C(=O)Nc2cnn(Cc3nc(C(C)(F)F)co3)n2)c1 [ACT-389949],neither WKYMVM nor ACT-389949 resulted in recruitment
-7.42 log M,96.8%,106%,-7.49 log M,97.5%,-8 log M,108%,-8.01 log M,102%,-7.66 log M,WKYMV[dM] (the last residue is the D form; the bought peptide is probably also an amide (surmise); source: bought: Tocris) [WKYMVm],–
